Measurements reported in IntAct's records for PubMed 20850366.

B1: Small glutamine-rich tetratricopeptide repeat-containing protein 2 (Saccharomyces cerevisiae), Q12118 (parent)
chain: MSASKEEIAALIVNYFSSIVEKKEISEDGADSLNVAMDCISEAFGFEREAVSGILGKSEFKGQHLADILNSASRVPESNKKDDAENVEINIPEDDAETKAKAEDLKMQGNKAMANKDYELAINKYTEAIKVLPTNAIYYANRAAAHSSLKEYDQAVKDAESAISIDPSYFRGYSRLGFAKYAQGKPEEALEAYKKVLDIEGDNATEAMKRDYESAKKKVEQSLNLEKTVPEQSRDADVDASQGASAGGLPDLGSLLGGGLGGLMNNPQLMQAAQKMMSNPGAMQNIQKMMQDPSIRQMAEGFASGGGTPNLSDLMNNPALRNMAGNLFGGAGAQSTDETPDNENKQ
B2: Mitochondrial fission 1 protein (Saccharomyces cerevisiae), P40515 (parent)
chain: MTKVDFWPTLKDAYEPLYPQQLEILRQQVVSEGGPTATIQSRFNYAWGLIKSTDVNDERLGVKILTDIYKEAESRRRECLYYLTIGCYKLGEYSMAKRYVDTLFEHERNNKQVGALKSMVEDKIQKETLKGVVVAGGVLAGAVAVASFFLRNKRR
partner: B1 chain
B3: Small glutamine-rich tetratricopeptide repeat-containing protein 2 (Saccharomyces cerevisiae), Q12118 (parent)
chain: B1 chain
partner: B2 chain

Variants of: B1
Settings: with sec22_yeast SEC22, P22214
sec22_yeast SEC22, P22214, sequence (P22214 whole entry): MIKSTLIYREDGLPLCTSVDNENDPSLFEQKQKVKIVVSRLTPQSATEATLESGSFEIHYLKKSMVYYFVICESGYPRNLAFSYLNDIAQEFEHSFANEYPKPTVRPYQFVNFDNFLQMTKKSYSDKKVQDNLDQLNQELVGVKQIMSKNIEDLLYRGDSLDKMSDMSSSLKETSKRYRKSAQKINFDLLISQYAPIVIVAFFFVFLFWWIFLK

Variant | effect of a mutation on the interaction
R171A;R175A | with no effect

Variants of: B2
Settings: with sgt2_yeast SGT2, Q12118

Variant | effect of a mutation on the interaction
G136L;G137L;G141L;A142L | increasing interaction strength

Variants of: B3
Settings: with fis1_yeast FIS1, P40515

Variant | effect of a mutation on the interaction
R171A;R175A | with no effect
